The RNAGym collection of RNA variant scans (doi:10.1021/acssynbio.7b00057)

B1: Pistol ribozyme (parent)
chain: GGGUCGUUGUUCCAUAAUCGCGUGGAUAUGGCACGCAAGUUUCUACCGGGCACCGUAAAUGUCCGACUGGAGCCGUUCGGGCGGCUAUAAACAGACCUCAGGCCCGAAGCGUGGCGGCACCUGCCGCCGGUGGUAAAAAAGAUCGGAAGAGCACACGUCU

Variants of: B1
Experiment: aptazyme ON/OFF ratio, guanine; higher = stronger switching; co-transcriptional cleavage with and without guanine

Variant | aptazyme ON/OFF ratio
U7A U8C G9A U10G U11A C12U | 1.04
U7A U8C G9A U10G U11C C12G C13G | 1.09
U7A U8C G9A U10G U11C C12G C13A | 1.21
U7A U8C G9A U10G U11C C12G C13U | 1.18
U7A U8C G9C U10A U11A C12A C13U | 1.05
U7A U8C G9C U10A U11A C12A C13G | 1.08
U7A U8C G9C U10A U11A C12A C13A | 1.05
U7A U8C G9C | 1.08
U7A U8C G9C U10A U11C C12U | 1.13
U7A U8C G9C U10A U11C C12G | 1.26
U7A U8C G9C U10A U11C C12A | 1.1
U7A U8C G9C U10A C12A C13G | 1.08
U7A U8C G9C U10A C12A C13U | 1.09
U7A U8C G9C U10A C12A C13A | 1
U7A U8C G9C U10A U11C C12G C13G | 1.27
U7A U8C G9C U10A U11C C12G C13U | 1.27
U7A U8C G9C U10A U11C C12G C13A | 1.29
U7A U8C G9A U11A C12G C13U | 1.16
U7A U8C G9A U11A C12G C13A | 1.11
U7A U8C G9A U11A C12G C13G | 1.21
U7A U8C G9C U10A U11C C13G | 1.46

Variant | aptazyme ON/OFF ratio
U7A U8C G9C U10A U11C C13A | 1.41
U7A U8C G9C U10A U11C C13U | 1.12
U7A U8C G9A U10G U11G C12G | 1.44
U7A U8C G9A U10G U11G C12U | 1.39
U7A U8C G9A U10G U11G C12A | 1.11
U7A U8C G9A U10G C13A | 1.17
U7A U8C G9A U10G C13G | 1.2
U7A U8C G9A U10G C13U | 1.09
U7A U8C G9C U10A C13A | 1.09
U7A U8C G9C U10A C13U | 1.06
U7A U8C G9C U10A C13G | 1.07
U7A U8C G9A U10G U11G C12G C13A | 1.42
U7A U8C G9A U10G U11G C12G C13U | 1.12
U7A U8C G9A U10G U11G C12G C13G | 1.09
U7A U8C G9A U11C C13U | 1.1
U7A U8C G9A U11C C13G | 1.08
U7A U8C G9A U11C C13A | 1.06
U7A U8C G9C U10A C12G | 1.21
U7A U8C G9C U10A C12U | 1.11
U7A U8C G9C U10A C12A | 1.09
U7A U8C G9C U10A U11G | 1.11

Variant | aptazyme ON/OFF ratio
U7A U8C G9C U10A U11A | 1.07
U7A U8C G9C U10A U11C | 1.08
U7A U8C G9C U10A | 1.17
U7A U8C G9C C12G C13A | 1.07
U7A U8C G9C C12G C13G | 1.09
U7A U8C G9C C12G C13U | 1.18
U7A U8C G9A U10G U11G C12A C13A | 1.39
U7A U8C G9A U10G U11G C12A C13G | 1.15
U7A U8C G9A U10G U11G C12A C13U | 1.27
U7A U8C G9A U10G U11C C13A | 1.06
U7A U8C G9A U10G U11C C13U | 1.05
U7A U8C G9A U10G U11C C13G | 1.06
U7A U8C G9A U10G U11G C13A | 1.25
U7A U8C G9A U10G U11G C13G | 1.15
U7A U8C G9A U10G U11G C13U | 1.18
U7A U8C G9A U11C C12A C13U | 1.23
U7A U8C G9A U11C C12A C13A | 1.19
U7A U8C G9A U11C C12A C13G | 1.16
U7A U8C G9A U10G U11G C12U C13U | 1.07
U7A U8C G9A U10G U11G C12U C13G | 1.33
U7A U8C G9A U10G U11G C12U C13A | 1.29

Variant | aptazyme ON/OFF ratio
U7A U8C G9C C12G | 1.09
U7A U8C G9C C12A | 1.12
U7A U8C G9C C12U | 1.06
U7A U8C G9A U11G C12A C13U | 1.08
U7A U8C G9A U11G C12A C13A | 1.22
U7A U8C G9A U11G C12A C13G | 1.21
U7A U8C G9A U10G U11A C12G C13G | 1.07
U7A U8C G9A U10G U11A C12G C13A | 1.11
U7A U8C G9A U10G U11A C12G C13U | 1.3
U7A U8C G9A U11G C12G C13U | 1.15
U7A U8C G9A U11G C12G C13G | 1.31
U7A U8C G9A U11G C12G C13A | 1.19
U7A U8C G9A U11A C13G | 1.09
U7A U8C G9A U11A C13A | 1.16
U7A U8C G9A U11A C13U | 1.3
U7A U8C G9A U10G U11G | 1.08
U7A U8C G9A U10G U11C | 1.04
U7A U8C G9A U10G U11A | 1.03
U7A U8C G9A U11A C12U C13G | 1.13
U7A U8C G9A U11A C12U C13A | 1.25
U7A U8C G9A U11A C12U C13U | 1.18
